T1: carcinoembryonic antigen (CEA) on MKN-45 cells (human, UniProt P06731 35-685)
T1 construct: whole, on cells; also called CEACAM5; Carcinoembryonic antigen-related cell adhesion molecule 5
T1 sequence (looked up): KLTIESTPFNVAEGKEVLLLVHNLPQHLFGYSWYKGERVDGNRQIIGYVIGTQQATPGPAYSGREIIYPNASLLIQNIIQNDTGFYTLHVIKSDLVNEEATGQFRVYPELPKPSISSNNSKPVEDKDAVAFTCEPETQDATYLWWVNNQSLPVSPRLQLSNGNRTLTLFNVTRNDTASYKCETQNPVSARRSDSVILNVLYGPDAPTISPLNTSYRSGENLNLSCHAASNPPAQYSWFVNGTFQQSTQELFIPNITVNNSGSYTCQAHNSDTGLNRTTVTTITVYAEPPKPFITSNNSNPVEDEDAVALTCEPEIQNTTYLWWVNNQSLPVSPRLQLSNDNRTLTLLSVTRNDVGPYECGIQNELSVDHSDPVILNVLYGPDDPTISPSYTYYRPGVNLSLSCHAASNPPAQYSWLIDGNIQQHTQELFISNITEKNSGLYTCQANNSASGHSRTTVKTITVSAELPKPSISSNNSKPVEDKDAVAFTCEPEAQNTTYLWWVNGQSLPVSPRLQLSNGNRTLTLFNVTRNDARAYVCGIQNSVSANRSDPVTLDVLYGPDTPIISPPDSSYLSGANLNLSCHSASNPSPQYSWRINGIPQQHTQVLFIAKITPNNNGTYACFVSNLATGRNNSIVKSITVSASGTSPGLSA

B1: PRIT Split Antibody with DOTAM-VH-P1AD8749 (antibody, human IgG1, kappa, L234A L235A)
heavy 1: QVQLVQSGAEVKKPGASVKVSCKASGYTFTEFGMNWVRQAPGQGLEWMGWINTKTGEATYVEEFKGRVTFTTDTSTSTAYMELRSLRSDDTAVYYCARWDFAYYVEAMDYWGQGTTVTVSSASTKGPSVFPLAPSSKSTSGGTAALGCLVKDYFPEPVTVSWNSGALTSGVHTFPAVLQSSGLYSLSSVVTVPSSSLGTQTYICNVNHKPSNTKVDKKVEPKSCDKTHTCPPCPAPEAAGGPSVFLFPPKPKDTLMISRTPEVTCVVVDVSHEDPEVKFNWYVDGVEVHNAKTKPREEQYNSTYRVVSVLTVLHQDWLNGKEYKCKVSNKALGAPIEKTISKAKGQPREPQVCTLPPSRDELTKNQVSLSCAVKGFYPSDIAVEWESNGQPENNYKTTPPVLDSDGSFFLVSKLTVDKSRWQQGNVFSCSVMHEALHNHYTQKSLSLSPG
heavy 2: not shown
light: DIQMTQSPSSLSASVGDRVTITCKASAAVGTYVAWYQQKPGKAPKLLIYSASYRKRGVPSRFSGSGSGTDFTLTISSLQPEDFATYYCHQYYTYPLFTFGQGTKLEIKRTVAAPSVFIFPPSDEQLKSGTASVVCLLNNFYPREAKVQWKVDNALQSGNSQESVTEQDSKDSTYSLSSTLTLSKADYEKHKVYACEVTHQGLSSPVTKSFNRGEC
notes: Full length anti-CEA (CH1A1A) human IgG1 with knob-into-hole and P329G LALA; one heavy chain carries the DOTAM VH at its C-terminus; No DOTAM VL; Bivalent for CEA; also called CEA-split-DOTAM-VH; P1_B
B2: P1AF0712 (antibody, human IgG1, kappa, L234A L235A)
heavy 1: not shown
heavy 2: QVQLVQSGAEVKKPGASVKVSCKASGYTFTEFGMNWVRQAPGQGLEWMGWINTKTGEATYVEEFKGRVTFTTDTSTSTAYMELRSLRSDDTAVYYCARWDFAYYVEAMDYWGQGTTVTVSSASTKGPSVFPLAPSSKSTSGGTAALGCLVKDYFPEPVTVSWNSGALTSGVHTFPAVLQSSGLYSLSSVVTVPSSSLGTQTYICNVNHKPSNTKVDKKVEPKSCDKTHTCPPCPAPEAAGGPSVFLFPPKPKDTLMISRTPEVTCVVVDVSHEDPEVKFNWYVDGVEVHNAKTKPREEQYNSTYRVVSVLTVLHQDWLNGKEYKCKVSNKALGAPIEKTISKAKGQPREPQVCTLPPSRDELTKNQVSLSCAVKGFYPSDIAVEWESNGQPENNYKTTPPVLDSDGSFFLVSKLTVDKSRWQQGNVFSCSVMHEALHNHYTQKSLSLSPGGGGGSGGGGSGGGGSGGGGSQAVVIQESALTTPPGETVTLTCGSSTGAVTASNYANWVQEKPDHLFTGLIGGHNNRPPGVPARFSGSLIGDKAALTIAGTQTEDEAIYFCALWYSDHWVIGGGTKLTVL
light: B1 light
notes: also called CEA specific SPLIT antibody (DOTA-VL); P6_A
B3: P1AF0713 (antibody, human IgG1, kappa, L234A L235A)
heavy 1: B1 heavy 1
heavy 2: not shown
light: B1 light
notes: also called CEA specific SPLIT antibody (DOTA-VH-AST); P6_B

Columns and labels:
[1] = molecular target: T1, carcinoembryonic antigen (CEA) on …; experiment: flow cytometry on MKN45 cells, hemibody mixed 1:1 with human ISO control, detection with anti-human IgG(H+L) (title: A488; legend box: FITC)
Experimental: To assess the functionality of the split antibodies or hemibodies, MKN-45 cells were detached from the culture vessel using accutase at 37° C. for 10 minutes. Subsequently, the cells were washed twice in PBS, and seeded into 96 well v-bottom plates to a final density of 4×10⁶ cells/well.
Subsequently, the cells were incubated for 1 h on ice and washed twice in PBS. The cell pellet was resuspended and 40 μl/well of detection reagent was added, either <human IgG(H+L)>FITC, (10 μg/ml) or Pb_Dotam_FITC 1:100=>(10 μg/ml) in PBS/5% FCS. After 60 min incubation on ice, the cells were washed twice in PBS and resuspended in 200 μl PBS/5% FCS for measurement of FITC fluorescence using a FACS canto.

[2] = molecular target: T1, carcinoembryonic antigen (CEA) on …; experiment: flow cytometry on MKN-45 cells, detection with anti-huIgG(H+L)-Alexa488
Experimental: MKN-45 cells were detached from the culture bottle using Trypsin and were counted using a Casy cell counter. After pelleting at 4° C., 300 g the cells were resuspended in FACS Buffer (2.5% FCS in PBS), adjusted to 2.0E+06 cells/mL dispensed to 96-well PP V-bottom-Platte (25 μL/well=5.0E+04 Zellen/well).
The CEA specific SPLIT antibodies (P1AF0712 or P1AF0713 respectively) were adjusted to 40 μg/mL in FACS buffer, resulting in a final concentration of 10 μg/mL. […] The cells were then washed twice in FACS buffer and resuspended in 70 μl/well FACS buffer for measurement using a FACS Canto (BD, Pharmingen). […] Both antibodies were added to the cells either separated followed by buffer or combined and incubated at 4° C. for 1 h. The cells were then washed twice in FACS buffer. After washing, the cells were resuspended in 50 μL FACS-buffer containing secondary antibody (<huIgG(H+L)>-Alexa488, c=10 μg/mL) and incubated 1 h at 4° C.

Binder	EC50 (read off the curve) [1] [µg/mL]	EC50 [2] [µg/mL]
B1	~1	–
B2	–	2.7
B3	–	2.3

— US20220267463A1 (Hoffmann-La Roche, published 2022)
